The test addresses T1, progesterone receptor alpha (Homo sapiens, UniProt P06401).
T1 construct: made in house; host or cells: in vitro translation, 35S-methionine labelled
T1 sequence (P06401 1-769 isoform P06401-2): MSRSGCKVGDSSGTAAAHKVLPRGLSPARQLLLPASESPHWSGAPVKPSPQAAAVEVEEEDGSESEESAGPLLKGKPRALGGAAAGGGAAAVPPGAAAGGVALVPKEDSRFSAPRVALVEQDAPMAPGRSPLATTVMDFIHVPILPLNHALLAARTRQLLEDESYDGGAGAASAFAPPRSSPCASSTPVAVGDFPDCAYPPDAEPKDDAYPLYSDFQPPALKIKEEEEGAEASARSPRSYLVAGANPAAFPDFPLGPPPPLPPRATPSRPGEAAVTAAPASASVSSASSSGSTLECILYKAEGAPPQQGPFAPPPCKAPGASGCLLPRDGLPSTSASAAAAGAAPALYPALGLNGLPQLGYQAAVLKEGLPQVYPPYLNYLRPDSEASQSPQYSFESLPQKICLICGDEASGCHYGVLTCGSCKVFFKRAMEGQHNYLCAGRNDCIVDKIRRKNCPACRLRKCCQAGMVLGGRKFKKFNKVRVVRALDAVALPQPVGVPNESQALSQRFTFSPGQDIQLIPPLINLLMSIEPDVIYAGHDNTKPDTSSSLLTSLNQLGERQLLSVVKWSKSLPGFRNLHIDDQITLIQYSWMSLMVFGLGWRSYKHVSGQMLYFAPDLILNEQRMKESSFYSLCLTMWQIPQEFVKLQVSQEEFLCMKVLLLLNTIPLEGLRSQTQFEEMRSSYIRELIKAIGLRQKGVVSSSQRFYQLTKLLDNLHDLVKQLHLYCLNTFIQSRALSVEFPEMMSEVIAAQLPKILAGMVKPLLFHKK
Briefly: GST-protein-interaction test. In kind it is binding. The note with it: in vitro. Here is the method:
To measure the interaction between SLIM3 and the nuclear receptors in vitro, the GST-Slim3 fusion protein was immobilized by means of glutathione-sepharose and incubated with several in vitro-translated ^35S-methionine-labeled nuclear receptors. The complete human androgen receptor binds to GST-Slim3. This in vitro interaction is not ligand-dependent under standard conditions. The complete human androgen receptor binds specifically to GST-Slim3, but not to the GST protein alone. To safeguard the specificity between the human androgen receptor and SLIM3, another GST-protein-interaction test was carried out (GST-protein-interaction assay). This test is described in E. PFITZNER et al. (1995) Functional Antagonism Between the Retinoid Acid Receptor and the Viral Transactivator BZLF1 is Mediated by Protein-Protein Interactions. Proc Natl Acad Sci USA Vol. 92, pp. 12265-12269.

Take “SLIM3: LIM-domain protein of 279 amino acids, co-activator for nuclear receptors AR and ERβ”: the “bond to SLIM3” value is recorded as “no bond”.

The record behind these values is US20020004209A1, “Use of SLIM3 for binding to molecules” (Schering Aktiengesellschaft Patents, priority 1999, published 2002).
